Test results as given in patent EP4671280A1 (Nanjing Leads Biolabs Co., Ltd., dated 2025).
Residue numbers refer to the chain shown, from its start. One block for each binder: values may come before it.

How the values were obtained:
[1] = target: T1, cynomolgus monkey Nectin-4 expressed on CHO-K1 cells (cynomolgus monkey, UniProt Q96NY8 32-370 (human entry), limits assumed); assay: flow cytometry on CHO-K1/cynoNectin4 cells
T1 construct: also called CHO-K1/cynoNectin4; cells expressing the cynomolgus monkey Nectin-4 protein
T1 chain: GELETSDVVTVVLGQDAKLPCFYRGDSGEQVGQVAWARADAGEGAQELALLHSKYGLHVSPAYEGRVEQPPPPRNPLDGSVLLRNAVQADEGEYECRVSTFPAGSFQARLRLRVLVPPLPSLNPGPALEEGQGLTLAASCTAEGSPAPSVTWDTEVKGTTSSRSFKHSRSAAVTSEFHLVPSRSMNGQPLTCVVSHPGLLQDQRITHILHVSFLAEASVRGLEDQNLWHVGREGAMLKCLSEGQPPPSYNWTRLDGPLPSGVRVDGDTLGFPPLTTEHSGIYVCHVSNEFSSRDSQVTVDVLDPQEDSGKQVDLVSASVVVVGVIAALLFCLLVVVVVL

[2] = target: T2, human Nectin-4 expressed on HT-1376 tumor cells (human, UniProt Q96NY8 32-510); assay: flow cytometry on HT-1376 cells
T2 construct: whole, on cells; also called HT-1376 cells expressing human Nectin-4
T2 sequence (looked up): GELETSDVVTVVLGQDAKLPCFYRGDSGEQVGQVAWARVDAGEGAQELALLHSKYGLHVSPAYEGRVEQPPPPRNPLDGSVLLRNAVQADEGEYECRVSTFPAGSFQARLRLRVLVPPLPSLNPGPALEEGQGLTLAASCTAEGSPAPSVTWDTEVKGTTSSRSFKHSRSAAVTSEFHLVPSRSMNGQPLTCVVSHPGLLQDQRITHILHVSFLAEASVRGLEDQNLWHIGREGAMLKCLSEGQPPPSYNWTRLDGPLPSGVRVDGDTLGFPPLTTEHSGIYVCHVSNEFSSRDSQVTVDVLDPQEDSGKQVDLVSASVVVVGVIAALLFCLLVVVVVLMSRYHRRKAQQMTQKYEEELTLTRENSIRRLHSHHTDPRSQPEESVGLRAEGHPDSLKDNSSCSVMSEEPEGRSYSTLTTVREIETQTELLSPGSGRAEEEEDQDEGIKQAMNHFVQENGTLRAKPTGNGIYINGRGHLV

[3] = target: T3, human Nectin-2 protein (Sino Biological, Cat. No. 10005-H08H) (human, UniProt Q92692 32-360); assay: ELISA, Nectin family protein immobilised on plate
T3 sequence (looked up): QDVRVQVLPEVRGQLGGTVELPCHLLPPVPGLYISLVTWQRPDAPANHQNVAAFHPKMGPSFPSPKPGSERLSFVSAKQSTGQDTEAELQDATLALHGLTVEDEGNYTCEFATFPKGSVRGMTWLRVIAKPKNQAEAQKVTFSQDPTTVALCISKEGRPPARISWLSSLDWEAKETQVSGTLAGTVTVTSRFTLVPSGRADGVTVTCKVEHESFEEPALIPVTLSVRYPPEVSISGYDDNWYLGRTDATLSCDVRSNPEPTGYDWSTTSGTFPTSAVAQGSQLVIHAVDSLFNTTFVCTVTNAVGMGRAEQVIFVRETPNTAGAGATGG

[4] = target: human Nectin-3 protein (Sino Biological, Cat. No. 10852-H08H) (human, UniProt Q9NQS3 58-404); assay: ELISA, Nectin family protein immobilised on plate
Chain of human Nectin-3 protein (Sino Biological, Cat. No. 10852-H08H) (Q9NQS3 58-404 limits assumed): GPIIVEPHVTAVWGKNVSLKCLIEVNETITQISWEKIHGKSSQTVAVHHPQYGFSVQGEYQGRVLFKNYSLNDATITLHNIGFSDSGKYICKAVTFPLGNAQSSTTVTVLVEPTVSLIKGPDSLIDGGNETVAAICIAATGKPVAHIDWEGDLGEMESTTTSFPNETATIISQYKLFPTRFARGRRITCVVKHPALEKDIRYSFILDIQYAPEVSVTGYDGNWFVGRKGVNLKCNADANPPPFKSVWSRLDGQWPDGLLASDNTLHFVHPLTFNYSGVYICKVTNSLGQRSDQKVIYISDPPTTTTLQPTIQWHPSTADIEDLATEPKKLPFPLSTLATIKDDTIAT

binding result [1]: binds
binding result [2]: binds
B1: huH4F3-2 (antibody, human IgG1, kappa, V domains shown)
VH: QVQLVQSGAEVKKPGASVKVSCKASGYTFTSYYIHWVRQAPGQRLEWMGWIYPGNVNTKYSQKFQGRVTLTRDKSASTAYMELSSLRSEDTAVYYCARGVYYFDFWGQGTLVTVSS
VL: AIQMTQSPSSLSASVGDRVTITCRASQSVSNDVGWYQQKPGKAPKLLIYYALNRYTGVPSRFSGSGSGTDFTLTISSLQPEDFATYYCQQDYSSPYTFGQGTKLEIKR
notes: Humanized 23-H4F3, human IgG1/kappa

binding result [1]: binds
binding result [2]: binds
B2: huH4F3-4 (antibody, human IgG1, kappa, V domains shown)
VH: B1 VH
VL: DIVMTQSPDSLAVSLGERATINCKASQSVSNDVAWYQQKPGQPPKLLIYYALNRESGVPDRFSGSGSGTDFTLTISSLQAEDVAVYYCQQDYSSPYTFGQGTKLEIKR
notes: as for B1

binding result [1]: binds
binding result [2]: binds
B3: huH4F3-10 (antibody, human IgG1, kappa, V domains shown)
VH: B1 VH with Y95F
VL: B2 VL with A25S
notes: as for B1

binding result [1]: binds
binding result [2]: binds
B4: huH4F3-6 (antibody, human IgG1, kappa, V domains shown)
VH: B1 VH with Y95F
VL: B1 VL with R54L, Y55Q, T56S
notes: as for B1

binding result [1]: binds
binding result [2]: binds
B5: huH4F3-9 (antibody, human IgG1, kappa, V domains shown)
VH: B1 VH with Y95F
VL: B2 VL
notes: as for B1

binding result [1]: binds
binding result [2]: binds
B6: huH4F3-3 (antibody, human IgG1, kappa, V domains shown)
VH: B1 VH
VL: B1 VL with Y36F, L73F
notes: as for B1

binding result [1]: binds
binding result [2]: binds
B7: huH4F3-1 (antibody, human IgG1, kappa, V domains shown)
VH: B1 VH
VL: B1 VL with R54L, Y55Q, T56S
notes: as for B1

binding result [1]: binds
binding result [2]: binds
B8: huH4F3-5 (antibody, human IgG1, kappa, V domains shown)
VH: B1 VH
VL: B2 VL with A25S
notes: as for B1

binding result [1]: binds
binding result [2]: binds
B9: huH4F3-8 (antibody, human IgG1, kappa, V domains shown)
VH: B1 VH with Y95F
VL: B1 VL with Y36F, L73F
notes: as for B1

binding result [1]: binds
binding result [2]: binds
B10: huH4F3-7 (antibody, human IgG1, kappa, V domains shown)
VH: B1 VH with Y95F
VL: B1 VL
notes: as for B1

binding result [3]: no binding
binding result [4]: no binding
EC50 [1]: 0.719 nM
EC50 [2]: 0.249 nM
B11: Antibody 6-B9B6 (murine chimeric anti-Nectin-4 antibody) (antibody, human IgG1, kappa, V domains shown)
VH: EVHLVESGGGLVQPGGSLKLSCAASGFTFSSYGMSWVRQTPDKRLELVATINNIGGSTFPPDSVKGRFTVSRDNAKNTLYLQMSSLKSEDTAMYYCARAYDYVPFAYWGQGTLVTVSA
VL: DIQMTQSSSYLSVSLGGRVTITCKASDHINNWLAWYQQKPGNAPRLLISGATSLETGVPSRFSGSGSGKDYALSIASLQTEDVATYYCQQYWSTPFTFGSGTKLEIKR
notes: Mouse variable regions on human IgG1 / human kappa constant regions

binding result [3]: no binding
binding result [4]: no binding
EC50 [1]: 0.411 nM
EC50 [2]: 0.064 nM
B12: Antibody 23-H4F3 (murine chimeric anti-Nectin-4 antibody) (antibody, human IgG1, kappa, V domains shown)
VH: QVQLQQSGPELVKPGASVRISCKASGYTFTSYYIHWVKQRPGQGLEWIGWIYPGNVNTKYNEKFKGKATLTADKSSSTAYMQLISLTSEDSAVYFCARGVYYFDFWGQGTTLTVSS
VL: SIVMTQTPKFLLVSAGDRVTLTCKASQSVSNDVAWFQQKPGQSPKLLIYYALNRYTGVPDRFTGSGYGTDFTFTISTVQAEDLAVYFCQQDYSSPYTFGGGTKLEIKR
notes: Mouse variable regions on human IgG1 / human kappa constant regions, expressed in ExpiCHO-S cells; also called chimeric antibody 23-H4F3

EC50 [1]: 1.05 nM
EC50 [2]: 0.3 nM
B13: Antibody 32-A12C7 (murine chimeric anti-Nectin-4 antibody) (antibody, human IgG1, kappa, V domains shown)
VH: QVQLQQPGAELVMPGASVKMSCKASGYTFTDYWMHWVKQRPGQGLEWIGAIDTSDSYTSYNQKFKGKATLTVDESSSTAYMQLSSLTSEDSAVYYCARWGSTMITWGYGMDNWGQGTSVTVSS
VL: DIQMTQTTSSLSASLGDRVTISCRASQDINNYLNWYQQKPDGTVKLLIYYTSRLHSGVPSRFSGSGSGTDYSLTISNLEQEDIATYFCQQGNTLPWTFGGGTKLEIKR
notes: as for B11

binding result [1]: binds
binding result [2]: binds
B14: Enfortumab (antibody, human IgG1, kappa, V domains shown)
VH: EVQLVESGGGLVQPGGSLRLSCAASGFTFSSYNMNWVRQAPGKGLEWVSYISSSSSTIYYADSVKGRFTISRDNAKNSLSLQMNSLRDEDTAVYYCARAYYYGMDVWGQGTTVTVSS
VL: DIQMTQSPSSVSASVGDRVTITCRASQGISGWLAWYQQKPGKAPKFLIYAASTLQSGVPSRFSGSGSGTDFTLTISSLQPEDFATYYCQQANSFPPTFGGGTKVEIKR
notes: used as control antibody (naked antibody, no drug); also called control antibody enfortumab
